# Experimental data as given in article PMC5555194, “Disease-linked mutations in factor H reveal pivotal role of cofactor activity in self-surface–selective regulation of complement activation” (The Journal of Biological Chemistry, 2017).
# “And” between values parts separate entries of the source, which are not always exact repeats. Equal entries are not always repeated.
# Assays:
# [1] = target: T1, C3b (human, UniProt P01024 23-667; P01024 749-1663); test: SPR; C3b amine-coupled to a Biacore C1 chip; dilution series of CFH (from 2.5 to 0.019 uM), preincubated with or without a 2-fold molar excess of PspCN, flowed over; Biacore T200, 25 °C, 10 mM HEPES, 150 mM NaCl, 0.05% P20; 1:1 steady-state model; three experiments on different chips; conditions: both partners purified
# T1 construct: Amine-coupled to the sensor chip; source: bought: Complement Technology (plasma-derived, human)
# [2] = target: T1, C3b; test: as above; conditions: both partners purified; remark: listed apart in the source
# T1 sequence (P01024 23-667, chain 1 of 2): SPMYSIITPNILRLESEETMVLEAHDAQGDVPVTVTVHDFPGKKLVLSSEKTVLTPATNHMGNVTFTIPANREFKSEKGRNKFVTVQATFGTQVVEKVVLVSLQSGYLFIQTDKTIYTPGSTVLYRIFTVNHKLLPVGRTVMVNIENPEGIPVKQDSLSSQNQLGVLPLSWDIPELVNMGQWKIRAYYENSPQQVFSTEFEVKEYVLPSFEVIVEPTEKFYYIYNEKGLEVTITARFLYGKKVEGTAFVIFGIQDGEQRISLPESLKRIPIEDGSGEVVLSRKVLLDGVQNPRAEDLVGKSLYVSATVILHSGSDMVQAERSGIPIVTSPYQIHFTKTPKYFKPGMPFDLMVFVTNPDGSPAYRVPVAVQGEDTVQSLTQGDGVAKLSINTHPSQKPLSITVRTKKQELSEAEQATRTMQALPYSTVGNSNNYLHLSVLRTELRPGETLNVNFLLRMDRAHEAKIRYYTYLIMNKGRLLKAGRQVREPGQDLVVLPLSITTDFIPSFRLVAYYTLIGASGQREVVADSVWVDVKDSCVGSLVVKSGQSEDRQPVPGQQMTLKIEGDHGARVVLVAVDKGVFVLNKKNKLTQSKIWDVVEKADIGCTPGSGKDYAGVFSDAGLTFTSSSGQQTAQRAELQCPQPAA
# T1 sequence (P01024 749-1663, chain 2 of 2): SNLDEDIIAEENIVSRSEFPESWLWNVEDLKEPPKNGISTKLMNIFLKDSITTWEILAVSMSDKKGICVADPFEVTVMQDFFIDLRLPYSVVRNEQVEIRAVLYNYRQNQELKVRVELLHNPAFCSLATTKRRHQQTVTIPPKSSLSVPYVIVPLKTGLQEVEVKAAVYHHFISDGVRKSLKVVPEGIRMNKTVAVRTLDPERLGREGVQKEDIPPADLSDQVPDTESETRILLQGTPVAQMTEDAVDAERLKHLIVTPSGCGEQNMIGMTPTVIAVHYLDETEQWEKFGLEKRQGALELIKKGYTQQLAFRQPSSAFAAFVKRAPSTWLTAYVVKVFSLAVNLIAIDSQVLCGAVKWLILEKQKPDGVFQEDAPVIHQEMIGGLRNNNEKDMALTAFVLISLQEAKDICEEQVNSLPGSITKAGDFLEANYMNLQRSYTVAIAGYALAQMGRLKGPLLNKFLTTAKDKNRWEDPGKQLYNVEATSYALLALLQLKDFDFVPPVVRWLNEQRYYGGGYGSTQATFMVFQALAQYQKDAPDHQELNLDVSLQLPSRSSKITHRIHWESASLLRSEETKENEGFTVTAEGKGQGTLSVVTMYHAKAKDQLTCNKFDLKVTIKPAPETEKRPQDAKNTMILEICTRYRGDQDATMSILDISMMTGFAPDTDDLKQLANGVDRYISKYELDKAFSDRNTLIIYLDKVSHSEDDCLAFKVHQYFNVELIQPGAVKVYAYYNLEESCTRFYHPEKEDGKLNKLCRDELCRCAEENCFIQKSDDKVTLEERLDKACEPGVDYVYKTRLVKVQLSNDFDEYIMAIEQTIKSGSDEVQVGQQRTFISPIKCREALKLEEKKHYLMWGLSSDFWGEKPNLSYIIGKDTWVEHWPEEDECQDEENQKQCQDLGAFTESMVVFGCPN
Binder,Kd [1] [nM],Kd [2]
"I62-CFH (recombinant human complement factor H, variant Ile-62, Tyr-402, Asp-936) (natural protein, UniProt P08603 19-1231, looked up, N-glycans trimmed to the first GlcNAc residues (EndoHf), complement factor H (CFH), human, CCPs 1-20, allotypic variant Ile-62, Tyr-402, Asp-936; Expressed from the vector pPICZaB and secreted; also called I62,D936-CFH; IYD-CFH; source: P. pastoris KM71H, secreted, enzymatically deglycosylated, chromatographically purified) EDCNELPPRRNTEILTGSWSDQTYPEGTQAIYKCRPGYRSLGNIIMVCRKGEWVALNPLRKCQKRPCGHPGDTPFGTFTLTGGNVFEYGVKAVYTCNEGYQLLGEINYRECDTDGWTNDIPICEVVKCLPVTAPENGKIVSSAMEPDREYHFGQAVRFVCNSGYKIEGDEEMHCSDDGFWSKEKPKCVEISCKSPDVINGSPISQKIIYKENERFQYKCNMGYEYSERGDAVCTESGWRPLPSCEEKSCDNPYIPNGDYSPLRIKHRTGDEITYQCRNGFYPATRGNTAKCTSTGWIPAPRCTLKPCDYPDIKHGGLYHENMRRPYFPVAVGKYYSYYCDEHFETPSGSYWDHIHCTQDGWSPAVPCLRKCYFPYLENGYNQNYGRKFVQGKSIDVACHPGYALPKAQTTVTCMENGWSPTPRCIRVKTCSKSSIDIENGFISESQYTYALKEKAKYQCKLGYVTADGETSGSITCGKDGWSAQPTCIKSCDIPVFMNARTKNDFTWFKLNDTLDYECHDGYESNTGSTTGSIVCGYNGWSDLPICYERECELPKIDVHLVPDRKKDQYKVGEVLKFSCKPGFTIVGPNSVQCYHFGLSPDLPICKEQVQSCGPPPELLNGNVKEKTKEEYGHSEVVEYYCNPRFLMKGPNKIQCVDGEWTTLPVCIVEESTCGDIPELEHGWAQLSSPPYYYGDSVEFNCSESFTMIGHRSITCIHGVWTQLPQCVAIDKLKKCKSSNLIILEEHLKNKKEFDHNSNIRYRCRGKEGWIHTVCINGRWDPEVNCSMAQIQLCPPPPQIPNSHNMTTTLNYRDGEKVSVLCQENYLIQEGEEITCKDGRWQSIPLCVEKIPCSQPPQIEHGTINSSRSSQESYAHGTKLSYTCEGGFRISEENETTCYMGKWSSPPQCEGLPCKSPPDISHGVVAHMSDSYQYGEEVTYKCFEGFGIDGPAIAKCLGEKWSHPPSCIKTDCLSLPSFENAIPMGEKKDVYKAGEQVTYTCATYYKMDGASNVTCINSRWTGRPTCRDTSCVNPPTVQNAYIVSRQMSKYPSGERVRYQCRSPYEMFGDEEVMCLNGNWTEPPQCKDSTGKCGPPPPIDNGDITSFPLSVYAPASSVEYQCQNLYQLEGNKRITCRNGQWSEPPKCLHPCVISREIMENYNIALRWTAKQKLYSRTGESVEFVCKRGYRLSSRSHTLRTTCWDGKLEYPTCAKR",1000 to 1300,–
"V62-CFH (recombinant human complement factor H, variant Val-62, Tyr-402, Glu-936) (natural protein, UniProt P08603 19-1231, looked up, N-glycans trimmed to the first GlcNAc residues (EndoHf), complement factor H (CFH), human, CCPs 1-20, allotypic variant Val-62, Tyr-402, Glu-936; Expressed from the vector pPICZaB and secreted; also called V62,E936-CFH; recombinant CFH; source: P. pastoris KM71H, secreted, enzymatically deglycosylated, chromatographically purified) EDCNELPPRRNTEILTGSWSDQTYPEGTQAIYKCRPGYRSLGNVIMVCRKGEWVALNPLRKCQKRPCGHPGDTPFGTFTLTGGNVFEYGVKAVYTCNEGYQLLGEINYRECDTDGWTNDIPICEVVKCLPVTAPENGKIVSSAMEPDREYHFGQAVRFVCNSGYKIEGDEEMHCSDDGFWSKEKPKCVEISCKSPDVINGSPISQKIIYKENERFQYKCNMGYEYSERGDAVCTESGWRPLPSCEEKSCDNPYIPNGDYSPLRIKHRTGDEITYQCRNGFYPATRGNTAKCTSTGWIPAPRCTLKPCDYPDIKHGGLYHENMRRPYFPVAVGKYYSYYCDEHFETPSGSYWDHIHCTQDGWSPAVPCLRKCYFPYLENGYNQNYGRKFVQGKSIDVACHPGYALPKAQTTVTCMENGWSPTPRCIRVKTCSKSSIDIENGFISESQYTYALKEKAKYQCKLGYVTADGETSGSITCGKDGWSAQPTCIKSCDIPVFMNARTKNDFTWFKLNDTLDYECHDGYESNTGSTTGSIVCGYNGWSDLPICYERECELPKIDVHLVPDRKKDQYKVGEVLKFSCKPGFTIVGPNSVQCYHFGLSPDLPICKEQVQSCGPPPELLNGNVKEKTKEEYGHSEVVEYYCNPRFLMKGPNKIQCVDGEWTTLPVCIVEESTCGDIPELEHGWAQLSSPPYYYGDSVEFNCSESFTMIGHRSITCIHGVWTQLPQCVAIDKLKKCKSSNLIILEEHLKNKKEFDHNSNIRYRCRGKEGWIHTVCINGRWDPEVNCSMAQIQLCPPPPQIPNSHNMTTTLNYRDGEKVSVLCQENYLIQEGEEITCKDGRWQSIPLCVEKIPCSQPPQIEHGTINSSRSSQESYAHGTKLSYTCEGGFRISEENETTCYMGKWSSPPQCEGLPCKSPPEISHGVVAHMSDSYQYGEEVTYKCFEGFGIDGPAIAKCLGEKWSHPPSCIKTDCLSLPSFENAIPMGEKKDVYKAGEQVTYTCATYYKMDGASNVTCINSRWTGRPTCRDTSCVNPPTVQNAYIVSRQMSKYPSGERVRYQCRSPYEMFGDEEVMCLNGNWTEPPQCKDSTGKCGPPPPIDNGDITSFPLSVYAPASSVEYQCQNLYQLEGNKRITCRNGQWSEPPKCLHPCVISREIMENYNIALRWTAKQKLYSRTGESVEFVCKRGYRLSSRSHTLRTTCWDGKLEYPTCAKR",–,270 nM
"R53H-CFH (on Ile-62 background) (natural protein, human, UniProt P08603 19-1231, looked up, N-glycans trimmed to the first GlcNAc residues (EndoHf), complement factor H (CFH), human, CCPs 1-20, aHUS-linked mutation R53H on the background Ile-62, Tyr-402, Asp-936; Expressed from the vector pPICZaB and secreted; the native signal peptide is probably absent; also called R53-CFH; source: P. pastoris KM71H, secreted, enzymatically deglycosylated, chromatographically purified) EDCNELPPRRNTEILTGSWSDQTYPEGTQAIYKCHPGYRSLGNIIMVCRKGEWVALNPLRKCQKRPCGHPGDTPFGTFTLTGGNVFEYGVKAVYTCNEGYQLLGEINYRECDTDGWTNDIPICEVVKCLPVTAPENGKIVSSAMEPDREYHFGQAVRFVCNSGYKIEGDEEMHCSDDGFWSKEKPKCVEISCKSPDVINGSPISQKIIYKENERFQYKCNMGYEYSERGDAVCTESGWRPLPSCEEKSCDNPYIPNGDYSPLRIKHRTGDEITYQCRNGFYPATRGNTAKCTSTGWIPAPRCTLKPCDYPDIKHGGLYHENMRRPYFPVAVGKYYSYYCDEHFETPSGSYWDHIHCTQDGWSPAVPCLRKCYFPYLENGYNQNYGRKFVQGKSIDVACHPGYALPKAQTTVTCMENGWSPTPRCIRVKTCSKSSIDIENGFISESQYTYALKEKAKYQCKLGYVTADGETSGSITCGKDGWSAQPTCIKSCDIPVFMNARTKNDFTWFKLNDTLDYECHDGYESNTGSTTGSIVCGYNGWSDLPICYERECELPKIDVHLVPDRKKDQYKVGEVLKFSCKPGFTIVGPNSVQCYHFGLSPDLPICKEQVQSCGPPPELLNGNVKEKTKEEYGHSEVVEYYCNPRFLMKGPNKIQCVDGEWTTLPVCIVEESTCGDIPELEHGWAQLSSPPYYYGDSVEFNCSESFTMIGHRSITCIHGVWTQLPQCVAIDKLKKCKSSNLIILEEHLKNKKEFDHNSNIRYRCRGKEGWIHTVCINGRWDPEVNCSMAQIQLCPPPPQIPNSHNMTTTLNYRDGEKVSVLCQENYLIQEGEEITCKDGRWQSIPLCVEKIPCSQPPQIEHGTINSSRSSQESYAHGTKLSYTCEGGFRISEENETTCYMGKWSSPPQCEGLPCKSPPDISHGVVAHMSDSYQYGEEVTYKCFEGFGIDGPAIAKCLGEKWSHPPSCIKTDCLSLPSFENAIPMGEKKDVYKAGEQVTYTCATYYKMDGASNVTCINSRWTGRPTCRDTSCVNPPTVQNAYIVSRQMSKYPSGERVRYQCRSPYEMFGDEEVMCLNGNWTEPPQCKDSTGKCGPPPPIDNGDITSFPLSVYAPASSVEYQCQNLYQLEGNKRITCRNGQWSEPPKCLHPCVISREIMENYNIALRWTAKQKLYSRTGESVEFVCKRGYRLSSRSHTLRTTCWDGKLEYPTCAKR",1000,1200 nM and 1800 nM
"S1191L/V1197A-CFH (LA-CFH, on Ile-62 background) (natural protein, human, UniProt P08603 19-1231, looked up, N-glycans trimmed to the first GlcNAc residues (EndoHf), complement factor H (CFH), human, CCPs 1-20, aHUS-linked double mutation S1191L/V1197A on the background Ile-62, Tyr-402, Asp-936; Expressed from the vector pPICZaB and secreted; the native signal peptide is probably absent; source: P. pastoris KM71H, secreted, enzymatically deglycosylated, chromatographically purified) EDCNELPPRRNTEILTGSWSDQTYPEGTQAIYKCRPGYRSLGNIIMVCRKGEWVALNPLRKCQKRPCGHPGDTPFGTFTLTGGNVFEYGVKAVYTCNEGYQLLGEINYRECDTDGWTNDIPICEVVKCLPVTAPENGKIVSSAMEPDREYHFGQAVRFVCNSGYKIEGDEEMHCSDDGFWSKEKPKCVEISCKSPDVINGSPISQKIIYKENERFQYKCNMGYEYSERGDAVCTESGWRPLPSCEEKSCDNPYIPNGDYSPLRIKHRTGDEITYQCRNGFYPATRGNTAKCTSTGWIPAPRCTLKPCDYPDIKHGGLYHENMRRPYFPVAVGKYYSYYCDEHFETPSGSYWDHIHCTQDGWSPAVPCLRKCYFPYLENGYNQNYGRKFVQGKSIDVACHPGYALPKAQTTVTCMENGWSPTPRCIRVKTCSKSSIDIENGFISESQYTYALKEKAKYQCKLGYVTADGETSGSITCGKDGWSAQPTCIKSCDIPVFMNARTKNDFTWFKLNDTLDYECHDGYESNTGSTTGSIVCGYNGWSDLPICYERECELPKIDVHLVPDRKKDQYKVGEVLKFSCKPGFTIVGPNSVQCYHFGLSPDLPICKEQVQSCGPPPELLNGNVKEKTKEEYGHSEVVEYYCNPRFLMKGPNKIQCVDGEWTTLPVCIVEESTCGDIPELEHGWAQLSSPPYYYGDSVEFNCSESFTMIGHRSITCIHGVWTQLPQCVAIDKLKKCKSSNLIILEEHLKNKKEFDHNSNIRYRCRGKEGWIHTVCINGRWDPEVNCSMAQIQLCPPPPQIPNSHNMTTTLNYRDGEKVSVLCQENYLIQEGEEITCKDGRWQSIPLCVEKIPCSQPPQIEHGTINSSRSSQESYAHGTKLSYTCEGGFRISEENETTCYMGKWSSPPQCEGLPCKSPPDISHGVVAHMSDSYQYGEEVTYKCFEGFGIDGPAIAKCLGEKWSHPPSCIKTDCLSLPSFENAIPMGEKKDVYKAGEQVTYTCATYYKMDGASNVTCINSRWTGRPTCRDTSCVNPPTVQNAYIVSRQMSKYPSGERVRYQCRSPYEMFGDEEVMCLNGNWTEPPQCKDSTGKCGPPPPIDNGDITSFPLSVYAPASSVEYQCQNLYQLEGNKRITCRNGQWSEPPKCLHPCVISREIMENYNIALRWTAKQKLYLRTGESAEFVCKRGYRLSSRSHTLRTTCWDGKLEYPTCAKR",–,830 nM and 860 nM
